Tested on: Escherichia coli TOP10
Assay: shrunken log2 fold change of peptide-encoding DNA abundance (4.5 h post-induction vs induction); higher = less antimicrobial activity (less host growth inhibition)
Conditions: time post-induction: 4.5 h; library: site-saturation at positions 5, 18, 19, 20
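Further: peptides expressed intracellularly from a pBAD plasmid library in pooled LB shake-flask culture, induced with 0.3% L-arabinose, DNA abundance read by NGS, three biological replicates, DESeq2 with apeglm shrinkage.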

Row | Sequence | shrunken log2 fold change
1 | RRIRQRPPRLPRPRPRPLTCPRP | -0.539
2 | RRIRQRPPRLPRPRPRPLVKPRP | -0.166
3 | RRIRQRPPRLPRPRPRPLWQPRP | 0.296
4 | RRIRQRPPRLPRPRPRPLWVPRP | 0.221
5 | RRIRQRPPRLPRPRPRPMANPRP | -0.18
6 | RRIRQRPPRLPRPRPRPMAPPRP | 0.0505
7 | RRIRQRPPRLPRPRPRPMCRPRP | -0.0374
8 | RRIRQRPPRLPRPRPRPMCTPRP | -0.173
9 | RRIRQRPPRLPRPRPRPMENPRP | -0.0199
10 | RRIRQRPPRLPRPRPRPMFTPRP | -0.31
11 | RRIRQRPPRLPRPRPRPMHMPRP | -0.369
12 | RRIRQRPPRLPRPRPRPMNEPRP | -0.0541
13 | RRIRQRPPRLPRPRPRPMPWPRP | 0.117
14 | RRIRQRPPRLPRPRPRPMSYPRP | -0.01
15 | RRIRQRPPRLPRPRPRPMTLPRP | 0.106
16 | RRIRQRPPRLPRPRPRPMTYPRP | -0.0223
17 | RRIRQRPPRLPRPRPRPMVPPRP | -0.0191
18 | RRIRQRPPRLPRPRPRPNACPRP | -0.000684
19 | RRIRQRPPRLPRPRPRPNAHPRP | -0.18
20 | RRIRQRPPRLPRPRPRPNDGPRP | -0.000777
21 | RRIRQRPPRLPRPRPRPNFMPRP | 0.0789
22 | RRIRQRPPRLPRPRPRPNFTPRP | -0.186
23 | RRIRQRPPRLPRPRPRPNFYPRP | -0.0848
24 | RRIRQRPPRLPRPRPRPNGTPRP | 1.1
25 | RRIRQRPPRLPRPRPRPNIPPRP | -0.262

Row | Sequence | shrunken log2 fold change
26 | RRIRQRPPRLPRPRPRPNIRPRP | 0.0516
27 | RRIRQRPPRLPRPRPRPNKFPRP | -0.896
28 | RRIRQRPPRLPRPRPRPNMAPRP | -0.173
29 | RRIRQRPPRLPRPRPRPNMPPRP | -0.634
30 | RRIRQRPPRLPRPRPRPNMRPRP | 0.121
31 | RRIRQRPPRLPRPRPRPNPNPRP | -0.0129
32 | RRIRQRPPRLPRPRPRPNQAPRP | -0.0235
33 | RRIRQRPPRLPRPRPRPNQMPRP | -0.0557
34 | RRIRQRPPRLPRPRPRPNREPRP | -0.0709
35 | RRIRQRPPRLPRPRPRPNRGPRP | -0.0689
36 | RRIRQRPPRLPRPRPRPNRMPRP | 0.00219
37 | RRIRQRPPRLPRPRPRPNSIPRP | -0.21
38 | RRIRQRPPRLPRPRPRPNVPPRP | -0.0402
39 | RRIRQRPPRLPRPRPRPNYYPRP | -0.611
40 | RRIRQRPPRLPRPRPRPPAMPRP | -0.0312
41 | RRIRQRPPRLPRPRPRPPCIPRP | -0.053
42 | RRIRQRPPRLPRPRPRPPCKPRP | 0.0303
43 | RRIRQRPPRLPRPRPRPPCRPRP | -0.0419
44 | RRIRQRPPRLPRPRPRPPCWPRP | 0.102
45 | RRIRQRPPRLPRPRPRPPDCPRP | -0.0194
46 | RRIRQRPPRLPRPRPRPPDTPRP | 0.103
47 | RRIRQRPPRLPRPRPRPPEYPRP | -0.245
48 | RRIRQRPPRLPRPRPRPPGTPRP | 0.617
49 | RRIRQRPPRLPRPRPRPPHEPRP | 0.559
50 | RRIRQRPPRLPRPRPRPPHLPRP | 0.205

Row | Sequence | shrunken log2 fold change
51 | RRIRQRPPRLPRPRPRPPKMPRP | -0.0821
52 | RRIRQRPPRLPRPRPRPPLEPRP | 0.949
53 | RRIRQRPPRLPRPRPRPPMWPRP | 0.336
54 | RRIRQRPPRLPRPRPRPPNKPRP | 0.116
55 | RRIRQRPPRLPRPRPRPPNPPRP | 0.109
56 | RRIRQRPPRLPRPRPRPPNQPRP | 0.448
57 | RRIRQRPPRLPRPRPRPPRYPRP | 0.606
58 | RRIRQRPPRLPRPRPRPPSRPRP | 0.138
59 | RRIRQRPPRLPRPRPRPPSTPRP | 0.179
60 | RRIRQRPPRLPRPRPRPPVFPRP | 0.247
61 | RRIRQRPPRLPRPRPRPPWYPRP | -0.226
62 | RRIRQRPPRLPRPRPRPQAIPRP | 0.0712
63 | RRIRQRPPRLPRPRPRPQAMPRP | 0.015
64 | RRIRQRPPRLPRPRPRPQCEPRP | -0.234
65 | RRIRQRPPRLPRPRPRPQCPPRP | -0.229
66 | RRIRQRPPRLPRPRPRPQDYPRP | -0.685
67 | RRIRQRPPRLPRPRPRPQFHPRP | -0.591
68 | RRIRQRPPRLPRPRPRPQFTPRP | -0.177
69 | RRIRQRPPRLPRPRPRPQGIPRP | -0.602
70 | RRIRQRPPRLPRPRPRPQGSPRP | 0.0165
71 | RRIRQRPPRLPRPRPRPQHIPRP | -0.357
72 | RRIRQRPPRLPRPRPRPQHWPRP | 0.0488
73 | RRIRQRPPRLPRPRPRPQIIPRP | -0.0763
74 | RRIRQRPPRLPRPRPRPQKTPRP | -0.064
75 | RRIRQRPPRLPRPRPRPQLDPRP | 0.188

Row | Sequence | shrunken log2 fold change
76 | RRIRQRPPRLPRPRPRPQLKPRP | -0.0311
77 | RRIRQRPPRLPRPRPRPQMTPRP | -0.106
78 | RRIRQRPPRLPRPRPRPQNLPRP | -0.0271
79 | RRIRQRPPRLPRPRPRPQNPPRP | -0.0336
80 | RRIRQRPPRLPRPRPRPQPTPRP | 0.163
81 | RRIRQRPPRLPRPRPRPQQMPRP | 0.156
82 | RRIRQRPPRLPRPRPRPQTDPRP | 0.00346
83 | RRIRQRPPRLPRPRPRPQTYPRP | -0.958
84 | RRIRQRPPRLPRPRPRPQYRPRP | 0.0114
85 | RRIRQRPPRLPRPRPRPQYVPRP | 0.0318
86 | RRIRQRPPRLPRPRPRPRAFPRP | 0.317
87 | RRIRQRPPRLPRPRPRPRCAPRP | 0.385
88 | RRIRQRPPRLPRPRPRPRCNPRP | -0.515
89 | RRIRQRPPRLPRPRPRPRESPRP | 0.0584
90 | RRIRQRPPRLPRPRPRPRETPRP | 0.248
91 | RRIRQRPPRLPRPRPRPRGVPRP | -0.0152
92 | RRIRQRPPRLPRPRPRPRHGPRP | -0.203
93 | RRIRQRPPRLPRPRPRPRHSPRP | -0.185
94 | RRIRQRPPRLPRPRPRPRKHPRP | 0.165
95 | RRIRQRPPRLPRPRPRPRLDPRP | 0.205
96 | RRIRQRPPRLPRPRPRPRLSPRP | 0.0751
97 | RRIRQRPPRLPRPRPRPRMAPRP | 0.0146
98 | RRIRQRPPRLPRPRPRPRMCPRP | 0.0318
99 | RRIRQRPPRLPRPRPRPRNAPRP | 0.483
100 | RRIRQRPPRLPRPRPRPRQKPRP | 0.257

Row | Sequence | shrunken log2 fold change
101 | RRIRQRPPRLPRPRPRPRQRPRP | 0.245
102 | RRIRQRPPRLPRPRPRPRRSPRP | -0.0497
103 | RRIRQRPPRLPRPRPRPRTFPRP | -0.471
104 | RRIRQRPPRLPRPRPRPRTNPRP | 0.158
105 | RRIRQRPPRLPRPRPRPRWFPRP | 0.0284
106 | RRIRQRPPRLPRPRPRPRWHPRP | 0.197
107 | RRIRQRPPRLPRPRPRPRWWPRP | 0.417
108 | RRIRQRPPRLPRPRPRPRYYPRP | -0.465
109 | RRIRQRPPRLPRPRPRPSCSPRP | -0.111
110 | RRIRQRPPRLPRPRPRPSDAPRP | 0.147
111 | RRIRQRPPRLPRPRPRPSEWPRP | -0.0519
112 | RRIRQRPPRLPRPRPRPSEYPRP | -0.44
113 | RRIRQRPPRLPRPRPRPSFQPRP | -0.467
114 | RRIRQRPPRLPRPRPRPSFRPRP | -0.578
115 | RRIRQRPPRLPRPRPRPSFYPRP | -0.653
116 | RRIRQRPPRLPRPRPRPSHMPRP | 0.109
117 | RRIRQRPPRLPRPRPRPSKCPRP | -0.719
118 | RRIRQRPPRLPRPRPRPSKWPRP | -0.351
119 | RRIRQRPPRLPRPRPRPSMSPRP | -0.393
120 | RRIRQRPPRLPRPRPRPSMYPRP | -1.39
121 | RRIRQRPPRLPRPRPRPSNFPRP | -0.621
122 | RRIRQRPPRLPRPRPRPSPGPRP | 0.194
123 | RRIRQRPPRLPRPRPRPSQKPRP | 0.0595
124 | RRIRQRPPRLPRPRPRPSQLPRP | 0.0128
125 | RRIRQRPPRLPRPRPRPSQVPRP | -0.23

Row | Sequence | shrunken log2 fold change
126 | RRIRQRPPRLPRPRPRPSQYPRP | -0.244
127 | RRIRQRPPRLPRPRPRPSRVPRP | -0.00679
128 | RRIRQRPPRLPRPRPRPSSAPRP | 2.99
129 | RRIRQRPPRLPRPRPRPSSHPRP | 0.0105
130 | RRIRQRPPRLPRPRPRPSTRPRP | 0.00434
131 | RRIRQRPPRLPRPRPRPSVDPRP | -0.00902
132 | RRIRQRPPRLPRPRPRPSVIPRP | -0.656
133 | RRIRQRPPRLPRPRPRPSYMPRP | -0.301
134 | RRIRQRPPRLPRPRPRPSYYPRP | -0.356
135 | RRIRQRPPRLPRPRPRPTCYPRP | -0.309
136 | RRIRQRPPRLPRPRPRPTDRPRP | 0.0938
137 | RRIRQRPPRLPRPRPRPTESPRP | 0.105
138 | RRIRQRPPRLPRPRPRPTGEPRP | 0.0647
139 | RRIRQRPPRLPRPRPRPTKKPRP | -0.0835
140 | RRIRQRPPRLPRPRPRPTKLPRP | -0.0369
141 | RRIRQRPPRLPRPRPRPTKNPRP | 0.0334
142 | RRIRQRPPRLPRPRPRPTMGPRP | -0.0283
143 | RRIRQRPPRLPRPRPRPTMHPRP | -0.0393
144 | RRIRQRPPRLPRPRPRPTNDPRP | -0.296
145 | RRIRQRPPRLPRPRPRPTPMPRP | 2.6
146 | RRIRQRPPRLPRPRPRPTRAPRP | 0.647
147 | RRIRQRPPRLPRPRPRPTRPPRP | 1.05
148 | RRIRQRPPRLPRPRPRPVAMPRP | 0.0794
149 | RRIRQRPPRLPRPRPRPVCLPRP | -0.161
150 | RRIRQRPPRLPRPRPRPVDEPRP | -0.249

Source: the supplement of paper PMC9112550, “Optimization of the antimicrobial peptide Bac7 by deep mutational scanning” (BMC Biology, 2022)
